B1: SEQ ID NO 19 (receptor)
chain: MAGHLPKPTLWAEPGSVITMDQPVTLRCQGGQETQEYRLYREKKTAPWITRIPQELVKKGQFPIPSITWEHAGRYRCYYGSDTSQWSASSDPLELVVTGVYIKPTLSAQPSPVVNSGGNVTLQCDSQVAFDGFILCKEGEDEHPQCLNSQPHARGSSRAIFSVGPVSPSRRWWYRCYAYMSWSPYEWSLPSDLLELDVDG
notes: mutated soluble two domain ILT-2; also called clone 83; Clone c83
B2: SEQ ID NO 12 (receptor)
chain: MAGHLPKPTLWAEPGSVITMDQPVTLRCQGGQETQEYRLYREKKTAPWITRIPQELVKKGQFPIPSITWEHAGRYRCYYGSDTSQWSASSDPLELVVTGVYIKPTLSAQPSPVVNSGGNVTLQCDSQVAFDGFILCKEGEDEHPQCLNSQPHARGSSRAIFSVGPVSPSRRWWYRCYAYVSYWPYEWSLPSDLLELDVDG
notes: mutated soluble two domain ILT-2
B3: SEQ ID NO 13 (receptor)
chain: MAGHLPKPTLWAEPGSVITMDQPVTLRCQGGQETQEYRLYREKKTAPWITRIPQELVKKGQFPIPSITWEHAGRYRCYYGSDTSQWSASSDPLELVVTGVYIKPTLSAQPSPVVNSGGNVTLQCDSQVAFDGFILCKEGEDEHPQCLNSQPHARGSSRAIFSVGPVSPSRRWWYRCYAYPAWTPYEWSLPSDLLELDVDG
notes: as for B2
B4: SEQ ID NO 7 (receptor)
chain: MAGHLPKPTLWAEPGSVITMDQPVTLRCQGGQETQEYRLYREKKTAPWITRIPQELVKKGQFPIPSITWEHAGRYRCYYGSDTSQWSASSDPLELVVTGVYIKPTLSAQPSPVVNSGGNVTLQCDSQVAFDGFILCKEGEDEHPQCLNSQPHARGSSRAIFSVGPVSPSRRWWYRCYAYPIWTPYEWSLPSDLLELDVDG
notes: as for B2
B5: SEQ ID NO 10 (receptor)
chain: MAGHLPKPTLWAEPGSVITMDQPVTLRCQGGQETQEYRLYREKKTAPWITRIPQELVKKGQFPIPSITWEHAGRYRCYYGSDTSQWSASSDPLELVVTGVYIKPTLSAQPSPVVNSGGNVTLQCDSQVAFDGFILCKEGEDEHPQCLNSQPHARGSSRAIFSVGPVSPSRRWWYRCYAYTDYSPYEWSLPSDLLELDVDG
notes: as for B2
B6: SEQ ID NO 8 (receptor)
chain: MAGHLPKPTLWAEPGSVITMDQPVTLRCQGGQETQEYRLYREKKTAPWITRIPQELVKKGQFPIPSITWEHAGRYRCYYGSDTSQWSASSDPLELVVTGVYIKPTLSAQPSPVVNSGGNVTLQCDSQVAFDGFILCKEGEDEHPQCLNSQPHARGSSRAIFSVGPVSPSRRWWYRCYAYVAWAPYEWSLPSDLLELDVDG
notes: as for B2
B7: SEQ ID NO 14 (receptor)
chain: MAQHLPKPTLWAEPGSVITMDQPVTLRCQGGQETQEYRLYREKKTAPWITRIPQELVKKGQFPIPSITWEHAGRYRCYYGSDTSQWSASSDPLELVVTGVYIKPTLSAQPSPVVNSGGNVTLQCDSQVDFDGFILCKEGEDEHPQCLNSQPHARGSSRAIFSVGPVSPSRRWWYRCYAYDSNSPYEWSLPSDLLELDVDG
notes: as for B2
B8: SEQ ID NO 15 (receptor)
chain: MAQHLPKPTLWAEPGSVITMDQPVTLRCQGGQETQEYRLYREKKTAPWITRIPQELVKKGQFPIPSITWEHAGRYRCYYGSDTSQWSASSDPLELVVTGVYIKPTLSAQPSPVVNSGGNVTLQCDSQVSFDGFILCKEGEDEHPQCLNSQPHARGSSRAIFSVGPVSPSRRWWYRCYAYDSNSPYEWSLPSDLLELDVDG
notes: as for B2
B9: SEQ ID NO 9 (receptor)
chain: MAGHLPKPTLWAEPGSVITMDQPVTLRCQGGQETQEYRLYREKKTAPWITRIPQELVKKGQFPIPSITWEHAGRYRCYYGSDTSQWSASSDPLELVVTGVYIKPTLSAQPSPVVNSGGNVTLQCDSQVAFDGFILCKEGEDEHPQCLNSQPHARGSSRAIFSVGPVSPSRRWWYRCYAYMNWAPYEWSLPSDLLELDVDG
notes: as for B2
B10: SEQ ID NO 11 (receptor)
chain: MAGHLPKPTLWAEPGSVITMDQPVTLRCQGGQETQEYRLYREKKTAPWITRIPQELVKKGQFPIPSITWEHAGRYRCYYGSDTSQWSASSDPLELVVTGVYIKPTLSAQPSPVVNSGGNVTLQCDSQVAFDGFILCKEGEDEHPQCLNSQPHARGSSRAIFSVGPVSPSRRWWYRCYAYVDWFPYEWSLPSDLLELDVDG
notes: as for B2
B11: SEQ ID NO 101 (receptor)
chain: MGHLPKPTLWAEPGSVITQGSPVTLRCQGGQETQEYRLYREKKTAPWITRIPQELVKKGQFPIPSITWEHAGRYRCYYGSDTAGRSESSDPLELVVTGIYKQPTLSAQPSPVVNSGGNVTLQCDSQVAFDGFILCKEGEDEHPQCLNSQPHARGSSRAIFSVGPVSPGRRWWYRCYAYDSNSPYEWSLPSDLLELLVL
notes: as for B2
B12: SEQ ID NO 105 (receptor)
chain: MGHLPKPTLWAEPGSVITMDQPVTLRCQGGQETQEYRLYREKKTAPWITRIPQELVKKGQFPIPSITWEHAGRYRCYYGSDTSQWSASSDPLELVVTGIYLAPTLSAQPSPVVNSGGNVTLQCDSQVAFDGFILCKEGEDEHPQCLNSQPHARGSSRAIFSVGPVSPSRRWWYRCYAYDSNSPYEWSLPSDLLELLVL
notes: as for B2
B13: SEQ ID NO 104 (receptor)
chain: MGHLPKPTLWAEPGSVITLGQPVTLRCQGGQETQEYRLYREKKTAPWITRIPQELVKKGQFPIPSITWEHAGRYRCYYGSDTAGRSESSDPLELVVTGIYLAPTLSAQPSPVVNSGGNVTLQCDSQVAFDGFILCKEGEDEHPQCLNSQPHARGSSRAIFSVGPVSPSRRWWYRCYAYDSNSPYEWSLPSDLLELLVL
notes: as for B2
B14: SEQ ID NO 103 (receptor)
chain: MGHLPKPTLWAEPGSVITMDQPVTLRCQGGQETQEYRLYREKKTAPWITRIPQELVKKGQFPIPSITWEHAGRYRCYYGSDTAGRSESSDPLELVVTGIYLAPTLSAQPSPVVNSGGNVTLQCDSQVAFDGFILCKEGEDEHPQCLNSQPHARGSSRAIFSVGPVSPSRRWWYRCYAYDSNSPYEWSLPSDLLELLVL
notes: as for B2
B15: SEQ ID NO 106 (receptor)
chain: MGHLPKPTLWAEPGSVITLGQPVTLRCQGGQETQEYRLYREKKTAPWITRIPQELVKKGQFPIPSITWEHAGRYRCYYGSDTSQWSASSDPLELVVTGIYLAPTLSAQPSPVVNSGGNVTLQCDSQVAFDGFILCKEGEDEHPQCLNSQPHARGSSRAIFSVGPVSPSRRWWYRCYAYDSNSPYEWSLPSDLLELLVL
notes: as for B2
B16: SEQ ID NO 102 (receptor)
chain: MGHLPKPTLWAEPGSVITQGSPVTLRCQGGQETQEYRLYREKKTAPWITRIPQELVKKGQFPIPSITWEHAGRYRCYYGSDTAGRSESSDPLELVVTGIYQKPTLSAQPSPVVNSGGNVTLQCDSQVAFDGFILCKEGEDEHPQCLNSQPHARGSSRAIFSVGPVSPSRRWWYRCYAYDSNSPYEWSLPSDLLELLVL
notes: as for B2

The values that follow come from patent US20100135997A1 (MEDGENE, published 2010).

One may read the Kd as a measure of binding affinity in units of concentration. One may read the koff as the rate constant with which the complex falls apart.

In this assay the target is T1, HLA-A*0201 loaded with the Carcinoembryonic antigen (CEA)-derived … peptide (biotin on the C-terminal biotinylation tag).
T1 construct: Soluble, biotinylated, immobilised on a streptavidin chip
The assay can be described thus: Biacore SPR. On the procedure: SPR measures changes in refractive index expressed in response units (RU) near a sensor surface within a small flow cell, a principle that can be used to detect receptor ligand interactions and to analyse their affinity and kinetic parameters. The probe flow cells were prepared by immobilising the pMHC complexes in flow cells via biotin-tag binding. The assay was then performed by passing soluble ILT-like molecule over the surfaces of the different flow cells at a constant flow rate, measuring the SPR response in doing so.
On the technique in general: Surface plasmon resonance follows binding to a sensor surface in real time, without labels.
B1 came in with a Kd of at most 1000 nM and a koff of at most 2 s⁻¹.
In turn, B2 yielded a Kd of at most 1000 nM and a koff of at most 2 s⁻¹.
Molecule B3 registered a Kd of at most 1000 nM and a koff of at most 2 s⁻¹.
On the same counts, the results for B4 are at most 1000 nM and at most 2 s⁻¹.
With B5, the dissociation constant (Kd) is at most 1000 nM and the koff was at most 2 s⁻¹.
The corresponding values for B6 are at most 1000 nM and at most 2 s⁻¹.
The corresponding values for B7 are at most 1000 nM and at most 2 s⁻¹.
The corresponding values for B8 are at most 1000 nM and at most 2 s⁻¹.
Regarding B9, the dissociation constant (Kd) is at most 1000 nM and the dissociation rate constant (koff) is at most 2 s⁻¹.
On the same counts, the results for B10 are at most 1000 nM and at most 2 s⁻¹.
On the same counts, the results for B11 are at most 1000 nM and at most 2 s⁻¹.
The corresponding values for B12 are at most 1000 nM and at most 2 s⁻¹.
Molecule B13 gave a Kd of at most 1000 nM and a koff of at most 2 s⁻¹.
The molecule B14 displayed a Kd of at most 1000 nM and a koff of at most 2 s⁻¹.
On the same counts, the results for B15 are at most 1000 nM and at most 2 s⁻¹.
On the same counts, the results for B16 are at most 1000 nM and at most 2 s⁻¹.
